Experimental data published in article PMC3443378 (Molecular Microbiology, 2012).

B1: PplcA/hly PrfA box 40-mer (dsDNA)
DNA 1: TGTCCCTTTATCGTCGTTAACAAATGTTAATGCCTCGACA
DNA 2: TGTCGAGGCATTAACATTTGTTAACGACGATAAAGGGACA
B2: PactA PrfA box 40-mer (dsDNA)
DNA 1: GGTCGGAGTTAACTGATTAACAAATGTTAGAGAAAACTTA
DNA 2: TAAGTTTTCTCTAACATTTGTTAATCAGTTAACTCCGACC

Legend:
Test in all cases: SPR
[1] = molecular target: PrfA S71L/G145S (Listeria monocytogenes P14, UniProt P22262 1-237, S71L;G145S)
[2] = molecular target: PrfA*sup G145S/E173G (Listeria monocytogenes P14, UniProt P22262 1-237, G145S;E173G)
[3] = molecular target: PrfA S71L (Listeria monocytogenes P14, UniProt P22262 1-237, S71L)
[4] = molecular target: PrfA L48F (Listeria monocytogenes P14, UniProt P22262 1-237, L48F)
[5] = molecular target: PrfA Y63W (Listeria monocytogenes P14, UniProt P22262 1-237, Y63W)
[6] = molecular target: PrfA E36R (Listeria monocytogenes P14, UniProt P22262 1-237, E36R)
[7] = molecular target: PrfA V80L (Listeria monocytogenes P14, UniProt P22262 1-237, V80L)
[8] = molecular target: PrfA I69W (Listeria monocytogenes P14, UniProt P22262 1-237, I69W)
[9] = molecular target: PrfA L48F/G145S (Listeria monocytogenes P14, UniProt P22262 1-237, L48F;G145S)
[10] = molecular target: PrfA WT (Listeria monocytogenes P14, UniProt P22262 1-237)
[11] = molecular target: PrfA F29M (Listeria monocytogenes P14, UniProt P22262 1-237, F29M)
[12] = molecular target: PrfA E36Q (Listeria monocytogenes P14, UniProt P22262 1-237, E36Q)
[13] = molecular target: PrfA L120V (Listeria monocytogenes P14, UniProt P22262 1-237, L120V)
[14] = molecular target: PrfA Y63W/G145S (Listeria monocytogenes P14, UniProt P22262 1-237, Y63W;G145S)

| Binder | Kd [1] | Kd [2] | Kd [3] | Kd [4] | Kd [5] | Kd [6] | Kd [7] | Kd [8] | Kd [9] | Kd [10] | Kd [11] | Kd [12] | Kd [13] | Kd [14] |
| --- | --- | --- | --- | --- | --- | --- | --- | --- | --- | --- | --- | --- | --- | --- |
| B1 | 75 1 | 10500 317 | 695 42 | 5260 101 | 1160 86 | 1440 13 | 1780 47 | 347 43 | 15 1 | 1100 49 | 288 45 | 1360 11 | 3120 37 | 9 1 |
| B2 | 67 1 | 32000 528 | 741 59 | 20800 262 | 1660 14 | 1080 10 | 1400 54 | 392 76 | 239 60 | 1360 24 | 267 15 | 801 67 | 1590 17 | 29 1 |
